Data taken from patent publication US20040110131A1.

Target: TGFβ in media conditioned by B16F10 melanoma cells (murine (produced by murine B16F10 cells))
Experiment: cell-based or functional assay

| level of active TGFβ as percent of total TGFβ (MLEC PAI-1 promoter luciferase assay) (% of total TGFβ) | Substance |
| --- | --- |
| 4.8 | TSR2 recombinant protein (second type 1 repeat of human TSP-1 without the DKRFK sequence, amino acids 416-473) |
| 30 | TSR2+RFK recombinant protein (second type 1 repeat of human TSP-1 with the RFK sequence, amino acids 411-473) |
